Key:
[1] = system: SK-N-BE(2)-M17 (M17) cells; test: Rotenone toxicity in stably transfected cell lines, LDH release; assay type: cell-based; settings: for rotenone-induced cell death, % of that in control cells: 1 μM rotenone, LDH release; for rotenone-induced cell death, % of that in control cells / protection against rotenone toxicity (LDH release): 48 hours; for protection against rotenone toxicity (LDH release): rotenone at varying concentrations
Experimental: Cell lines stably-transfected with either 14-3-3θ or empty vector were treated with varying concentrations of rotenone (0-25 μM) for 24 hours (FIG. 6A), 30 hours (FIG. 6B), or 48 hours (FIG. 6C). Cell death was assayed by LDH release into the culture media. LDH release into media was normalized to total LDH release for each well. […] Rater was blind to experimental condition. n=8 for each experimental condition. *p<0.05, ***p<0.001 (Bonferroni's multiple comparison test).
M17 cell lines stably-transfected with either a 14-3-3 isoform or empty vector were treated with varying concentrations of rotenone (0-25 μM) for 48 hours. Cell death was assayed by LDH release into the culture media. LDH release into media was normalized to total LDH release for each well. […] Results reflect two to three independent experiments with at least two replicates per experiment. *p<0.05, **p<0.01, ***p<0.001 (Bonferroni's multiple comparison test).
Additional studies were performed to evaluate the effect of 14-3-3 polypeptide isoforms in mammalian cells. In these studies, cDNA clones for the 14-3-3 polypeptide β, γ, ε, η, θ, and σ isoforms were subcloned into the mammalian expression vector pcDNA 3.1/V5/His (Invitrogen). The polypeptide expressed from this vector contains the particular 14-3-3 isoform with a V5 and a His6 tag at the C-terminal end. […] SK-N-BE(2)-M17 (M17) cells, a dopaminergic-producing human neuroblastoma cell line, were transfected with each isoform or empty vector using Superfect, and stably-transfected cells were selected for in the presence of G418.
The M17 14-3-3θ clones were examined for their resistance to rotenone (0-25 μM). M17 cell lines stably transfected with either 14-3-3θ or empty vector were treated with rotenone for 24 (FIG. 6A), 30 (FIG. 6B) or 48 hours (FIG. 6C). Cell death was assayed by […] (LDH) release into the culture media using the LDH assay kit from Roche. LDH release into media was normalized to total LDH release for each well. Results reflect three independent experiments with at least two replicates per experiment.
Stable M17 cell lines overexpressing these other isoforms were treated with rotenone at varying concentrations, and then cell death was assayed at 48 hours by LDH release. […]

H4 cells = test: α-syn aggregation assay (synT + synphilin co-transfection); assay type: cell-based; settings: isoform co-transfected with synT and synphilin; 24 hours after transfection; vs empty vector
Experimental: H4 cells were cotransfected with either empty vector or a 14-3-3 isoform along with synT and synphilin. 24 hours after transfection, cells were fixed and stained with a monoclonal antibody against α-syn. Cells that stained for α-syn were scored as positive or negative for α-syn aggregates, with the rater blind to experimental condition. Results reflect three independent experiments with four replicates per experiment. ***p<0.001 (Bonferroni's multiple comparison test).
To evaluate this hypothesis the effect of increased 14-3-3 polypeptide expression on α-syn aggregation was evaluated. In this experiment, the model of McLean et al., in which α-syn/green fluorescent protein (GFP) fusion protein (synT) forms visible aggregates in cells when expressed with synphilin (McLean, P J et al., Neuroscience, 104:901-12, 2001) was used. This system has been used to evaluate the effect of different polypeptides on α-syn aggregation (Kiucken, J., et al, J Biol Chem, 279:4625-31, 2004). Briefly, H4 cells were co-transfected with either empty vector or a vector containing nucleic acid encoding a 14-3-3 isoform, along with synT and synphilin. Twenty-four hours after transfection, cells were fixed and stained with a monoclonal antibody against α-syn. Results are shown in FIG. 3 and reflect three independent experiments with 4 replicates per experiment. […] These are the same 14-3-3 isoforms that were decreased in α-syn transgenic mice (see FIG. 2).
Primers against each of the human 14-3-3 isoforms were designed using Primer3. […] All cells stained for α-syn were scored as positive or negative for α-syn aggregates, with the rater blind to experimental condition. • α-syn toxicity assay H4 cells were transfected with α-syn and either empty vector control or a 14-3-3 isoform using Superfect transfection reagent (Qiagen). 24 hours after transfection, toxicity was measured by the amount of adenylate kinase released into the media using the ToxiLight™ kit (Cambrex). • Creation of stable cell lines Each 14-3-3 isoform was subcloned into the mammalian expression vector mcDNA3.1/V5-His (Invitrogen). […]

Molecule | rotenone-induced cell death, % of that in control cells ([1]; stable overexpression) [%] | protection against rotenone toxicity (LDH release) ([1]; stable overexpression) | decrease in the number of H4 cells displaying α-syn aggregates (H4 cells) [%] | protection against rotenone at low doses ([1]; 0.04 and 0.2 μM rotenone) | protection against rotenone at higher doses ([1]; 1 and 5 μM rotenone) | resistance to rotenone toxicity compared to control cells (LDH release) ([1]; stable overexpression, rotenone 0-25 μM, 24, 30 or 48 hours)
14-3-3γ: 14-3-3 polypeptide γ isoform, overexpressed from expression vector | 55 | prominent reduction in rotenone-induced toxicity | 40 |  |  | 
14-3-3ζ: 14-3-3 polypeptide ζ isoform, overexpressed from expression vector (protein, UniProt P63104 1-245, looked up) 14-3-3 protein zeta/delta: MDKNELVQKAKLAEQAERYDDMAACMKSVTEQGAELSNEERNLLSVAYKNVVGARRSSWRVVSSIEQKTEGAEKKQQMAREYREKIETELRDICNDVLSLLEKFLIPNASQAESKVFYLKMKGDYYRYLAEVAAGDDKKGIVDQSQQAYQEAFEISKKEMQPTHPIRLGLALNFSVFYYEILNSPEKACSLAKTAFDEAIAELDTLSEESYKDSTLIMQLLRDNLTLWTSDTQGDEAEAGEGGEN | 78 | some protection |  |  |  | 
14-3-3θ: 14-3-3 polypeptide θ isoform, overexpressed from V5/His-tagged pcDNA3.1 vector (or as transgene in C. elegans) (protein, UniProt P27348 1-245, looked up, V5/His tag) 14-3-3 protein theta: MEKTELIQKAKLAEQAERYDDMATCMKAVTEQGAELSNEERNLLSVAYKNVVGGRRSAWRVISSIEQKTDTSDKKLQLIKDYREKVESELRSICTTVLELLDKYLIANATNPESKVFYLKMKGDYFRYLAEVACGDDRKQTIDNSQGAYQEAFDISKKEMQPTHPIRLGLALNFSVFYYEILNNPELACTLAKTAFDEAIAELDTLNEDSYKDSTLIMQLLRDNLTLWTSDSAGEECDAAEGAEN | 45 |  | 40 | Mild protection | more prominent protection | more resistant to rotenone toxicity
14-3-3ε: 14-3-3 polypeptide ε isoform, overexpressed from expression vector (protein, UniProt P62258 1-255, looked up) 14-3-3 protein epsilon: MDDREDLVYQAKLAEQAERYDEMVESMKKVAGMDVELTVEERNLLSVAYKNVIGARRASWRIISSIEQKEENKGGEDKLKMIREYRQMVETELKLICCDILDVLDKHLIPAANTGESKVFYYKMKGDYHRYLAEFATGNDRKEAAENSLVAYKAASDIAMTELPPTHPIRLGLALNFSVFYYEILNSPDRACRLAKAAFDDAIAELDTLSEESYKDSTLIMQLLRDNLTLWTSDMQGDGEEQNKEALQDVEDENQ | 65 | prominent reduction in rotenone-induced toxicity | 40 |  |  | 
